Assay results from article PMC9772228, “Structure of a RecT/Redβ family recombinase in complex with a duplex intermediate of DNA annealing”.
Positions count from the first letter of the chain named.

T1: LiRecT V98A (Listeria innocua CLIP 11262, UniProt Q92FL9 1-271, V98A)
T1 sequence: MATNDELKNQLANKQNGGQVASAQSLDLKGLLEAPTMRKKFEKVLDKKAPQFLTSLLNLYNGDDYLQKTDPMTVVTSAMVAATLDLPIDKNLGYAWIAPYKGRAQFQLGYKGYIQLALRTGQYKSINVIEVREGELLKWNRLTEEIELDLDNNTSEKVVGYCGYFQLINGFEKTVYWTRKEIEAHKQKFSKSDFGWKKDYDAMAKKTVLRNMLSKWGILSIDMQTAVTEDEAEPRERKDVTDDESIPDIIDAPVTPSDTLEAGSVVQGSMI

T2: LiRecT K191A/F194A (Listeria innocua CLIP 11262, UniProt Q92FL9 1-271, K191A;F194A)
T2 sequence: T1 sequence with A98V, K191A, F194A


Legend:
LiRecT V98A = target: T1, LiRecT V98A; experiment: EMSA; EMSA: PBS pH 7.4 (or KH2PO4/10 mM MgCl2 pH 6.0), 3.6 or 5 uM protein, 25 uM nt DNA, 37 C 15 min per strand, 0.8% agarose 1x TBE; cryo-EM: 20 mM KH2PO4 (Results: 10 mM), 10 mM MgCl2 pH 6.0, 37 C; native MS: 100 mM ammonium acetate pH 7, 37 C; conditions: protein: recombinant, tags: N-terminal 6His vector tag (20 aa) retained, chain copies: 10, single strand
LiRecT K191A/F194A = target: T2, LiRecT K191A/F194A; experiment: as above; conditions: protein: recombinant, tags: N-terminal 6His vector tag (20 aa) retained, chain copies: 10, single strand

| Binder | binding result (LiRecT V98A; label: 5'-Cy5) | binding result (LiRecT K191A/F194A; label: 5'-Cy5) | binding result (LiRecT V98A; label: 5'-Cy3) | binding result (LiRecT K191A/F194A; label: 5'-Cy3) |
| --- | --- | --- | --- | --- |
| CCATCCGCAAAAATCGAGCTATGCAGGGCGATTCTGCTCTAAGCCATCCG (ssDNA) [Cy5-50mer] | binds | binds |  |  |
| GCGGATGGCTTAGAGCAGAATCGCCCTGCATAGCTCGATTTTTGCGGATG (ssDNA) [Cy3-50mer] |  |  | binds | binds |
